Here are results for 41 sequences from the nanobody polyreactivity screen of Harvey et al. (2022).

The nature of this data set: yeast display, Sf9 membrane polyspecificity reagent, FACS + sequencing; frameworks hold sequencing errors. The gist of the method:
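In a synthetic yeast display library (Saccharomyces cerevisiae BJ5465), nanobody expression was induced with galactose for 36–48 hours. FACS gates were set low and high (top ~1%) using anti-HA fluorescence for expression and streptavidin fluorescence for binding of the Sf9 membrane reagent. Each polyreactivity label is drawn from the gate of origin.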
“QVQLVESGGGLVQAGGSLRLSCAASGSIFWYYGMGWYRQAPGKERELVAAISSGGSTNYADSVKGRFAISRDNAKNTVYLQMNRLKPEDTAVYYCATKGYLWGQGTQVTVSS”: the “polyreactivity (PSR sort gate)” value was “high polyreactivity”.
The same measure for “QVQLVESGGGLVQAGGSLRLSCAASGLIFTYYAMGWYRQAPGKERELVAGISSGTNTNYADSVKGRFTISRDNAKNTVYLQMISLKPEDTAVYYCAKTRGYQFVAYGYWGQGTQVTVSS”: “low polyreactivity”; for “QVQLVESGGGLVQAGGSLRLSCAASGFTYPGYAMGWYRQAPRKERELVASITDNGANTYYADSVKGRFTISRDNAKNTVYLQMNSLKPEDTAVYYCAADPGRVTRVGVRYYYWGQGTQVTVSS”: “high polyreactivity”.
The same measure for “QVQLVESGGGLVQAGGSLRLSCAASGRIFLWYAMGWYRQAPGKERELVAVITGGGSTNYADSVKGRFTISRDNAKNTVYLQMNSLKPEDTAVYYCATEGYGHGGETDGGVYSDLGYWGQGTQVTVSS”: “low polyreactivity”; for “QVQLVESGGGLVHAGGSLRLSCASSGSTFVLYAMGWYRQAPGKERELVAVISWSGGSTYYADSVKGRFTISRDNAKNTVYLQLYSLKPEDTAVYYCAKRYRVSYYPYADPYGYWGQGTQVNVSS”: “low polyreactivity”; for “QVQLVESGGGLVQAGGSLRLSCAASGSIFVSYAMGWYRQAPGKERELVAAITYSGGRTYYADSVKGRFTISRDNAKNTVYLQMNCLKPEDTAVYYCAKRVSYPVRFPYFSYDYWGQGTQVTVSS”: “low polyreactivity”.
The result for “QVQLVESGGGLVQAGGSLRLSCAASGRTFGRYAMGWYRQAPGKERELVAAISWSGGSTNYADSVKGRFTISRDNAKNTVYLQMISLKPEDTAVYYCAAVTTDGVYAFDYWGQGTQVTVSS” reads “low polyreactivity”.
Consider “QVQLVESGGGLVQAGGSLRLSCAASGSTFGWYTMGWYRQAPGKERELVAAINYSGGSTYYADSVKGRFTISRDNAKNTVYLQMNSLKPEDTAVYYCATDQSTYLYGYYYWGQGTQVTVSS”, for which the “polyreactivity (PSR sort gate)” value was “low polyreactivity”.
Turning to “QVQLVESGGGLVQAGGSLRLSCAASGRIFLRYALGWYRQAPGKEREWVAVITWSGGSTNYADSVKGRFTISRDNAKNTVYLQMNSLKPEDTAVYYCAVDNTGRSWPYDYWGQGTQVTVSS”, the “polyreactivity (PSR sort gate)” value is “low polyreactivity”.
The result for “QVQLVESGGGLGQAGGSLRLSCAASGFTFYYYAMGWYRQAPGKERELVAAISYSGGSTYYADSVKGRFTISRDNAKNTVYLQMNSLKPEDTARYYCAADLSTYSRGFDYWGQGTQVTVSS” reads “high polyreactivity”; that for “QVQLVESGGGLVQAGGTLRLTCAASGTFYGNNMGWYIHAPGKQRELVATIRRSTGSTYYADSVKGRFTISRDNAKNTVYLQMNSLKPEDTAVYYCAAEIYSYYRLYWYDYRGQGTQVTVSS”, “high polyreactivity”; that for “QVQLVESGGGLVQAGGSLRLSCAASGSTFRAYAMGWYRQAPGKEREFVADISWSGGSTYYADSVKGRFTISRDNAKNTVYLQMNSLKPEDTAVYYCAAEAAPLIIVTYDYWGQGTQVTVSS”, “low polyreactivity”.
In the case of “QVQLVESGGGLVQAGGSLRLSSAASGSIFKYYAMGWYRQAPGKERELVATISSVGSTNYADSVKGRFTISRDNAKNTVYLKMNSLKPEATAVYYCNARIGSRSYAWISTRYDYWGQGTQVTVSS”, the “polyreactivity (PSR sort gate)” value is reported as “high polyreactivity”.
For “QVQLVESGGGLVQAGGSLRLICAASGNTFYRNAMGLYRQAPGKERELVAAIDYSAGSTYYADSVKWRFTISRDNAKYSVFFQMKSLNPEDTAVYYCAADARTSRGGRYYYWGQGTQVTVSS”, the “polyreactivity (PSR sort gate)” value was “low polyreactivity”.
The same measure for “QDQHVESGGGLVQAGGSLRLSCAASGILYNYYAMGWYRQAHGKERELVAAISASGGSTYYADSVKGRFTISRDNAKNTVYLQMYSLKPEDTAVYYCNAAVLYRQYGRGDYLGQGTQVTVSS”: “low polyreactivity”; for “QVQLVESGGGLVQAGGSLRLSCAASGSTFQSYAMGWYRQAPGKERELVAGITSGDSTNYADSVKGRFTISRDNAKNTVYFQMISLKPEDTAVYYCNAVTQASYYYWGQGTQVTVSS”: “low polyreactivity”.
The result for “QVQLVESGGGLVQAGGSLRLSCAASGGIFFTYAMGWYRQAPGKERELVAGISWSDGSTYADSVKGRFTISRDNAKNTVYLQMNSLKPEDTAVYYCNKRIYDLFLSPAAGGYWGQGTQVTVSS” reads “low polyreactivity”; that for “QVQLVESGGGLVQAGGSLRLSCAATGRTLPPNAMGSYRQAPGKERELVAGITWSGGSTYYADSVKGRFTISRDNAKNTVYLQMNSLKPEDTAVYYCAASRSFPGYGLYYYWGQGTQVTVSS”, “low polyreactivity”; that for “QVQLVESGGGLVQAGGSLRLSCAASGSTFVRYAMGWYRQAPGKERELVAAITWSGGITYYADSVKGRFTISRDNAKNTVYLQMNSLKPEDTAVYYCNAEQKQYEKSYDYWGQGTQVTVSS”, “low polyreactivity”.
The same measure for “QVQLVESGGGLVQAGGSLRLSCAASGFTFGVYAMGWYRQAPGKERELVAAISVSGGRTYYADSVKGRFTISRDNAKNTVYLQMNSLKPEDTAVYYCAADLGLKTSSRRTSMYYWGQGTQVTVSS”: “high polyreactivity”; for “QVQLVESGGGLVQAGGSLRLSCAASGRIFSSYAMGWYRQAPGKERELVADITGRYGSTYYADSVKGRFTISRDNAKNTVYLQMNSLKPEDTAVYYCAASRFYFPRTFGGYPKLASYAYWGQVTQVTVSS”: “low polyreactivity”.
In the case of “QVQLVESGGGLVQAGGSLRLSCAASGRTFRWYAMGWYRQAPGKERELVARITYSGGSTYYADSVKGRFTISRDNAKNTVYLQMNSLKPEDTAVYYCAAKRYTGSSSIYYYWGQGTQVTVSS”, the “polyreactivity (PSR sort gate)” value is listed as “high polyreactivity”.
The same measure for “QVQLVESGGGLVQAGGSLRSSCAASGYTFRYYAMGWSRQAPGKERELVAAITSSSNTTYADSVKGRFTISRDNEKNTVYLQMNSLKPDDTGVYYCNTPYFTGYYWGQGTQVTVSS”: “high polyreactivity”; for “QVQLVESGGGLVQAGVSLRLSCAASGRTFGYYAMGWYRPAPGKETELVAASTLSGGSTYYADSVKGRFTISRDNAKNTVYLQMNSLKPEYTAVYYCAAKWWHFYPYDYWGQGTQVTVSS”: “high polyreactivity”.
“QVQLVESGGGLVQAGGSLRKSCAASRGILETNAIGWYRQAPGKERELVAAIDFSAGSTYYADSVKGRFTISRDNAKNTVYLQMNSLKPEDTAVYYCATRLGVLYDYWGHGTQVTVSS”: the “polyreactivity (PSR sort gate)” value is reported as “low polyreactivity”.
The result for “QVQLVESGGRLVQAGGSLRLRCAASGFIFGWYTMGWYRQAPGKERELVASISRSGGSTYYADSVKGRFTISRDNEKNTVYVQMNSLKPEDTAVSYCAKRSLVDAHGYWGQGTQVTVSS” reads “high polyreactivity”; that for “QVQLVESGGGLVQAGGSLRLSCAASGLTFYYYAMGWYRQAPGKERELVAAISRSGGSTYYADSVKGRFTISRDNAKNTVYLQMNSLKPEDTAVYYCAADYFTLYPYRGYDYWGQGTQVTVSS”, “low polyreactivity”.
As for “QVQLVESGGGLVQAGGSLRLSCAASGFTLGFYAMGWYIQAPGKERELVAAINWRGGSTYYADSVKGRFTISRDNAKNTVYLQMNSLKPEDTAVYYCNAGFNTGGYGYWGQGTQVTVSS”, the “polyreactivity (PSR sort gate)” value was “high polyreactivity”.
On to “QVQLVESGGCLDQAGGSLRLSCAASGFTFYNYAMGWYRQEPGKETQLVAAITRNGGRTYYADSVKWRFTISRDNAKYTVYLQMNSLKPEDTAFYYCASKKYKTVRYDYWGQGTQGTVSS”, for which the “polyreactivity (PSR sort gate)” value is given as “high polyreactivity”.
The result for “QVQLVESGGGLVQAGGSLRLSCAASGFIFGFYAMGWYRQAPGKERELVAAITSDGGTYYADSVKGRFTISRDNAKNTVYLQMNSLKPEDTAVYYCAADVLYEVFSWYVGYDYWGQGTQVTVSS” reads “low polyreactivity”; that for “QVQLVESGRGLVQAGGSLRLSCAASGSTFDGYAMGWYRQAPGKVRELVAAINWGGGSTRYADSVKGRFTISRDHAKNTVYLQMNSLKPEDTPVYYCAAYRYRVWYRGYDYWGQGTQVTVSS”, “high polyreactivity”.
For “QVHLVESGGGLVQAGGSLRLRCAASGSNLESYAMGWYRQAPGKEMELVADITYDGGITYYADSVKGRFTISRDNAKNTVYLQMNSLKPEDTAVYYCATEYRYWQSDYSTYFPYDYWGQGTQVTVSS”, the “polyreactivity (PSR sort gate)” value is “low polyreactivity”.
The result for “QVQLVESGGGLVQAGGSLRLSCAASGSIFTGNAMGSYRQAPGKERELVAAISSSGARTYYADSVKGRFTISRDNAKNTVNLQMNSLKPEDTAVYYCNADSYTLYGLYDYWGQGTKVTVSS” reads “low polyreactivity”; that for “QVQLVESGGGLVPAGGSRRLSCAASGSIFTSYAMGWYRQAPGKERELVAAISSSGGSTYYADSVSGRFTISRDNAKQTVYFQMNSLKPEDTAVYYCAARYKGVYAPHYYWGQGTQVTVSS”, “high polyreactivity”.
Regarding “QVQLVESGGGLVQAGGSLRLSCAASGITSKQYAMVWYRQAPGKERELVAAISGSGTRTYYADSVKGRFTISRDNAKNTVNLQMNSLKPEDTAVYYCAAYGYSRCHDDWGQVTQVTVSS”, the “polyreactivity (PSR sort gate)” value is recorded as “high polyreactivity”.
The same measure for “QVQLVESGGGLVQAGGSLRLSCAASGRTIQTYVMGWYRQAPGKERELVASIRSGGRTKYADSVKGRFTISRDNAKNTVYLQMNSLKPEDTAVYYCAADRRAYYYSFDYWGQGTQVTVSS”: “low polyreactivity”; for “QVQLVESGGGLVQAGGSLRLSCAASGFISPGYAMGWYRQAPGKERELVAAITRDGGTYYADSVKGRFTISRDNAKNTVYLQMNSLKPEDTAVYYCAAEGSFRKFDYWGQGTQVTVSS”: “low polyreactivity”.
The same measure for “QVQLVESGGGLVQAGGSLRLSCAASGSTFWATAMGWYRQAPGKERELVAAITTSGASTNYADSVKGRFTISRDNAKNTVYLQMNSLKPEDTAVYYCAADYDSYYWYNYWGQGTQVTVSS”: “low polyreactivity”.
The same measure for “QEQLQESGGGLVQAGGSLRLSCAASGTITVLYKMGWFRQAPGKEREFVASINYGTSTYYADSVKGRFTVSRDSAKNTVYLQMNSLKPEDTAVYYCAAAYRWQDVYRYWGQGTQVTVSS”: “low polyreactivity”; for “QVQLEESGGGLVQAGGSLRLSCAASGSILESNVMGWYRQAPGKERELVASISSSGDSTYADSVKGRFTISRDNAKNTVYLQMNSLKPEDTAVYYCAADRWYWTYALYYWGQGTQVTVSS”: “low polyreactivity”; for “QVQLVESGGGLVQAGGSLRLSCAASGITFWYYAMGWYRQAPGKERELVAVISRGGSTYYADSVKGRFTISRDNAKNTVYLQLNSLKPEDTAVYYCAARPRWYTYTRQEYDYWGQGTQVTVSS”: “high polyreactivity”.
